Among the data in PMC6317279 are transient CRE luciferase-based (EVX-Luc) reporter assay, basal transcriptional activity of S391A mutant CRTC3 against WT CRTC3 values, retold here.

The target in the test is FLAG-tagged CRTC3 S391A (mouse) (UniProt Q91X84).
UniProt Q91X84, sequence (Q91X84 whole entry S391A): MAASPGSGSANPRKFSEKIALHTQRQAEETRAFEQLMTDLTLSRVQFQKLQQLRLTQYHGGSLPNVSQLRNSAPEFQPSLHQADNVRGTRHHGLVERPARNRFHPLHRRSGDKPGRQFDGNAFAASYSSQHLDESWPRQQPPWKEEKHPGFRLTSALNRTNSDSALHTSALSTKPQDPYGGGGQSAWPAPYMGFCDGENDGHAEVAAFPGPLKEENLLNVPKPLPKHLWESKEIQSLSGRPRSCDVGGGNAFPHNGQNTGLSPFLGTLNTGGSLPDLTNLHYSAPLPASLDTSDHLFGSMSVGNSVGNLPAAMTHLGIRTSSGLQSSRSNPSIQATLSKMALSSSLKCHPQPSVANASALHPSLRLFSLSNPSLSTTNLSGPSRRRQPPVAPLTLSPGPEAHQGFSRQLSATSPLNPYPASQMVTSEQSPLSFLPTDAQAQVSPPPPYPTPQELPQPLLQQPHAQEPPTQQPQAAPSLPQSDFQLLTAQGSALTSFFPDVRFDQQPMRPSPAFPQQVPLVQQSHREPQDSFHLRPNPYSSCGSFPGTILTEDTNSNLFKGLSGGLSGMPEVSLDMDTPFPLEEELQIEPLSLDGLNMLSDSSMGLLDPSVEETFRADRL

For “B55 PP2A holoenzyme (protein phosphatase 2A: catalytic, scaffold and 55-kDa regulatory B subunits) (from UniProt P67775 1-309; P30153 1-589; P63151 1-447) (complex)”, the transient CRE luciferase-based (EVX-Luc) reporter assay, basal transcriptional activity of S391A mutant CRTC3 against WT CRTC3 came out at 2 fold lower.
